Molecular target: rabies virus glycoprotein (G) (rabies virus (strain CVS-27)) (UniProt O92284)
Test: cryo-electron tomography

## rabies virus glycoprotein (G) (from UniProt O92284 20-524) (natural protein)
  stoichiometry N: 3
